PMC4664897, “Neurodegenerative disease-associated mutants of a human mitochondrial aminoacyl-tRNA synthetase present individual molecular signatures” (Scientific Reports, 2015)

Assays:
[1] = target: the molecule itself; experiment: SEC + other: SAXS; HPLC-SEC (Agilent Bio SEC-3, 15 °C) directly upstream of the SAXS cell; WT, Q184K and R263Q loaded at 7.4, 10 and 14 mg/ml; mobile phase 100 mM HEPES-Na pH 7.5, 250 mM NaCl, 5% glycerol, 1 mM TCEP; oligomer from Rg and Porod volume of each peak
[2] = target: the molecule itself; experiment: dynamic light scattering; 2 mg/ml in 100 mM potassium phosphate pH 7.5, 50 mM KCl, 0.1 mM EDTA, 10 mM β-mercaptoethanol, 10% glycerol, 20 °C; hydrodynamic diameter

Protein	stoichiometry N [1]	stoichiometry N [2]
wild-type human mitochondrial aspartyl-tRNA synthetase (mt-AspRS) (enzyme, human mitochondrial aspartyl-tRNA synthetase (DARS2), residues 41-645; linker of 5 residues before the C-terminal 6-His tag; Homodimer; also called WT; WT mt-AspRS; not shown: His6, C-terminal, kept) IPEFSSFVVRTNTCGELRSSHLGQEVTLCGWIQYRRQNTFLVLRDFDGLVQVIIPQDESAASVKKILCEAPVESVVQVSGTVISRPAGQENPKMPTGEIEIKVKTAELLNACKKLPFEIKNFVKKTEALRLQYRYLDLRSFQMQYNLRLRSQMVMKMREYLCNLHGFVDIETPTLFKRTPGGAKEFLVPSREPGKFYSLPQSPQQFKQLLMVGGLDRYFQVARCYRDEGSRPDRQPEFTQIDIEMSFVDQTGIQSLIEGLLQYSWPNDKDPVVVPFPTMTFAEVLATYGTDKPDTRFGMKIIDISDVFRNTEIGFLQDALSKPHGTVKAICIPEGAKYLKRKDIESIRNFAADHFNQEILPVFLNANRNWNSPVANFIMESQRLELIRLMETQEEDVVLLTAGEHNKACSLLGKLRLECADLLETRGVVLRDPTLFSFLWVVDFPLFLPKEENPRELESAHHPFTAPHPSDIHLLYTEPKKARSQHYDLVLNGNEIGGGSIRIHNAELQRYILATLLKEDVKMLSHLLQALDYGAPPHGGIALGLDRLICLVTGSPSIRDVIAFPKSFRGHDLMSNTPDSVPPEELKPYHIRVSKPTDSKAERAHVMYLE	2	
human mt-AspRS mutant L626Q (enzyme, human mitochondrial aspartyl-tRNA synthetase (DARS2), residues 41-645, LBSL patient mutation 1876T>A (printed as 626Q in the methods, L626Q elsewhere); linker of 5 residues before the C-terminal 6-His tag; Mutation found in LBSL patients; not shown: His6, C-terminal, kept) IPEFSSFVVRTNTCGELRSSHLGQEVTLCGWIQYRRQNTFLVLRDFDGLVQVIIPQDESAASVKKILCEAPVESVVQVSGTVISRPAGQENPKMPTGEIEIKVKTAELLNACKKLPFEIKNFVKKTEALRLQYRYLDLRSFQMQYNLRLRSQMVMKMREYLCNLHGFVDIETPTLFKRTPGGAKEFLVPSREPGKFYSLPQSPQQFKQLLMVGGLDRYFQVARCYRDEGSRPDRQPEFTQIDIEMSFVDQTGIQSLIEGLLQYSWPNDKDPVVVPFPTMTFAEVLATYGTDKPDTRFGMKIIDISDVFRNTEIGFLQDALSKPHGTVKAICIPEGAKYLKRKDIESIRNFAADHFNQEILPVFLNANRNWNSPVANFIMESQRLELIRLMETQEEDVVLLTAGEHNKACSLLGKLRLECADLLETRGVVLRDPTLFSFLWVVDFPLFLPKEENPRELESAHHPFTAPHPSDIHLLYTEPKKARSQHYDLVLNGNEIGGGSIRIHNAELQRYILATLLKEDVKMLSHLLQALDYGAPPHGGIALGLDRLICLVTGSPSIRDVIAFPKSFRGHDLMSNTPDSVPPEEQKPYHIRVSKPTDSKAERAHVMYLE		2
human mt-AspRS mutant L613F (enzyme, human mitochondrial aspartyl-tRNA synthetase (DARS2), residues 41-645, LBSL patient mutation 1837C>T (L613F); linker of 5 residues before the C-terminal 6-His tag; Mutation found in LBSL patients; not shown: His6, C-terminal, kept) IPEFSSFVVRTNTCGELRSSHLGQEVTLCGWIQYRRQNTFLVLRDFDGLVQVIIPQDESAASVKKILCEAPVESVVQVSGTVISRPAGQENPKMPTGEIEIKVKTAELLNACKKLPFEIKNFVKKTEALRLQYRYLDLRSFQMQYNLRLRSQMVMKMREYLCNLHGFVDIETPTLFKRTPGGAKEFLVPSREPGKFYSLPQSPQQFKQLLMVGGLDRYFQVARCYRDEGSRPDRQPEFTQIDIEMSFVDQTGIQSLIEGLLQYSWPNDKDPVVVPFPTMTFAEVLATYGTDKPDTRFGMKIIDISDVFRNTEIGFLQDALSKPHGTVKAICIPEGAKYLKRKDIESIRNFAADHFNQEILPVFLNANRNWNSPVANFIMESQRLELIRLMETQEEDVVLLTAGEHNKACSLLGKLRLECADLLETRGVVLRDPTLFSFLWVVDFPLFLPKEENPRELESAHHPFTAPHPSDIHLLYTEPKKARSQHYDLVLNGNEIGGGSIRIHNAELQRYILATLLKEDVKMLSHLLQALDYGAPPHGGIALGLDRLICLVTGSPSIRDVIAFPKSFRGHDFMSNTPDSVPPEELKPYHIRVSKPTDSKAERAHVMYLE		2
human mt-AspRS mutant R58G (enzyme, human mitochondrial aspartyl-tRNA synthetase (DARS2), residues 41-645, LBSL patient mutation 172C>G (R58G); linker of 5 residues before the C-terminal 6-His tag; Mutation found in LBSL patients; not shown: His6, C-terminal, kept) IPEFSSFVVRTNTCGELGSSHLGQEVTLCGWIQYRRQNTFLVLRDFDGLVQVIIPQDESAASVKKILCEAPVESVVQVSGTVISRPAGQENPKMPTGEIEIKVKTAELLNACKKLPFEIKNFVKKTEALRLQYRYLDLRSFQMQYNLRLRSQMVMKMREYLCNLHGFVDIETPTLFKRTPGGAKEFLVPSREPGKFYSLPQSPQQFKQLLMVGGLDRYFQVARCYRDEGSRPDRQPEFTQIDIEMSFVDQTGIQSLIEGLLQYSWPNDKDPVVVPFPTMTFAEVLATYGTDKPDTRFGMKIIDISDVFRNTEIGFLQDALSKPHGTVKAICIPEGAKYLKRKDIESIRNFAADHFNQEILPVFLNANRNWNSPVANFIMESQRLELIRLMETQEEDVVLLTAGEHNKACSLLGKLRLECADLLETRGVVLRDPTLFSFLWVVDFPLFLPKEENPRELESAHHPFTAPHPSDIHLLYTEPKKARSQHYDLVLNGNEIGGGSIRIHNAELQRYILATLLKEDVKMLSHLLQALDYGAPPHGGIALGLDRLICLVTGSPSIRDVIAFPKSFRGHDLMSNTPDSVPPEELKPYHIRVSKPTDSKAERAHVMYLE		2
human mt-AspRS mutant T136S (enzyme, human mitochondrial aspartyl-tRNA synthetase (DARS2), residues 41-645, LBSL patient mutation 406A>T (T136S); linker of 5 residues before the C-terminal 6-His tag; Mutation found in LBSL patients; not shown: His6, C-terminal, kept) IPEFSSFVVRTNTCGELRSSHLGQEVTLCGWIQYRRQNTFLVLRDFDGLVQVIIPQDESAASVKKILCEAPVESVVQVSGTVISRPAGQENPKMPSGEIEIKVKTAELLNACKKLPFEIKNFVKKTEALRLQYRYLDLRSFQMQYNLRLRSQMVMKMREYLCNLHGFVDIETPTLFKRTPGGAKEFLVPSREPGKFYSLPQSPQQFKQLLMVGGLDRYFQVARCYRDEGSRPDRQPEFTQIDIEMSFVDQTGIQSLIEGLLQYSWPNDKDPVVVPFPTMTFAEVLATYGTDKPDTRFGMKIIDISDVFRNTEIGFLQDALSKPHGTVKAICIPEGAKYLKRKDIESIRNFAADHFNQEILPVFLNANRNWNSPVANFIMESQRLELIRLMETQEEDVVLLTAGEHNKACSLLGKLRLECADLLETRGVVLRDPTLFSFLWVVDFPLFLPKEENPRELESAHHPFTAPHPSDIHLLYTEPKKARSQHYDLVLNGNEIGGGSIRIHNAELQRYILATLLKEDVKMLSHLLQALDYGAPPHGGIALGLDRLICLVTGSPSIRDVIAFPKSFRGHDLMSNTPDSVPPEELKPYHIRVSKPTDSKAERAHVMYLE		2
